From patent publication US20220143136A1, “USE OF ANNEXINS IN PREVENTING AND TREATING MUSCLE MEMBRANE INJURY” (NORTHWESTERN UNIVERSITY, priority 2018, published 2022) come the findings set out here.

Read-outs that look alike come from different tables or passages of the source.

For one data set, the system named is Isolated FDB fibers. Kind of data set: Single cell Ca2+ and shortening measurements. Format: cell-based, mouse. As to conditions: annexin A6 overexpression vs control fibers. Here is the method:
Single cell Ca^2+ and shortening measurements. Isolated FDB fibers were plated on laminin coated glass-bottomed 35 mm dishes for one hour and then cultured overnight in DMEM with 10% FBS and 1% penicillin/streptomycin at 37° C. in a 10% CO2 incubator. One hour prior to data acquisition, the medium was removed and cells were incubated in Tyrode buffer (119 mM NaCl, 5 mM KCl, 25 mM HEPES, 2 mM CaCl2, 2 mM MgCl2) with 10 μM Indo-1 AM (TefLabs) for 1 hour at 37° C. in a 10% CO2 incubator. Dishes were then filled with Tyrode buffer, mounted on a custom stage and platinum pacing electrodes were inserted into the dish. Stimulation was elicited using a 701C high-powered stimulator controlled by the 950A software (Aurora Scientific). Stimulation was performed at 40 and 80 Hz, 5 ms pulse width, 100 ms duration. Ratiometric Ca^2+ signals were collected with two photomultiplier tubes and a FluoroDaq controller. Video sarcomere length was recorded with a high-speed camera and fast Fourier transform using the Aurora Scientific 900B-VSL system (Aurora, Ontario). Ten transients were collected over 20 seconds and averaged together per cell per frequency.

Data set [1] concerns Sgcg-null mice. The following applies: 1 mg/kg, 5 injections over 48 hours, 60 minutes downhill running, vs BSA control.
Method: Serum collection and CK analysis. Mice were sedated (3% isoflurane, 0.8 l/min O2) and blood was collected by means of retro-orbital puncture with heparinized capillary tubes (20-362-566; Fisher Scientific, Waltham, Mass.) into Microtainer™ Gold Top Serum Separator (365967 Becton Dickinson, Franklin Lakes, N.J.) and centrifuged at 8,000×g for 10 minutes. The plasma fractions were frozen and stored at −80° C. Serum creatine kinase (CK) was analyzed in duplicate for each mouse using the EnzyChrom Creatine Kinase Assay (ECPK-100; BioAssay Systems, Hayward, Calif.) following manufacturer's instructions as described (Demonbreun A R, Allen M V, Warner J L, Barefield D Y, Krishnan S, Swanson K E, et al. Enhanced Muscular Dystrophy from Loss of Dysferlin Is Accompanied by Impaired Annexin A6 Translocation after Sarcolemmal Disruption. Am J Pathol. 2016; 186(6):1610-22). Results were acquired with the Synergy HTX multi-mode plate reader (BioTek®, Winooski, Vt.).
Sgcg-null mice were sedated (3% isoflurane, 0.8 l/min O2) and pre-exercise blood was collected by means of left retro-orbital puncture as described above. While sedated, mice were then injected 1 mg/kg recombinant annexin A6 (5186-A6-050, R&D systems) or PBS+1 mg/kg BSA into the right retro-orbital cavity at 9 am and 5 μm for 5 consecutive injection over 48 hours. […] Serum creatine kinase (CK) was analyzed as described above. […]
Data set [2] deals with Sgcg-null mice. Kind of data set: Chronic injury, short-term chronic dosing and serum biomarker analysis. Format: in vivo, mouse. As to conditions: for serum creatine kinase (CK) at day 14: 1 mg/kg once every three days for 14 days, vs PBS control. The method, then: Chronic Injury and biomarker analysis. […] Mice were injected once every 3 days for a period of 12 days. Serum was acquired as previously described (Demonbreun et al 2016a). Serum CK was analyzed for each mouse using the EnzyChrom Creatine Kinase Assay (catalog ECPK-100, BioAssay Systems) following the manufacturer's instructions. Lactate dehydrogenase was analyzed for each mouse using (LDH cytotoxicity kit MK401, Takara) following the manufacturer's instructions.
Serum collection and CK analysis.
Short-term chronic dosing regimen. […] An additional cohort of Sgcg-null mice had blood drawn as described above immediately prior to the first protein injection. Then, 1 mg/kg recombinant annexin A6 or annexin A2 (both produced by Northwestern's Protein Production Core) was injected into the right retro-orbital cavity of sedated mice, once every 3 days for a total of 5 injections and then blood drawn on day 14 post initial injection.

[3] abbreviates: 1 mg/kg retro-orbital once every 3 days for 12 days, vs control.

B1: annexin A6: annexin A6 with carboxyl-terminal turboGFP or tdTomato tag, expressed from plasmid electroporated into myofibers (protein, UniProt P14824 2-673, looked up)
Annexin A6: AKIAQGAMYRGSVHDFPEFDANQDAEALYTAMKGFGSDKESILELITSRSNKQRQEICQNYKSLYGKDLIEDLKYELTGKFERLIVNLMRPLAYCDAKEIKDAISGVGTDEKCLIEILASRTNEQMHQLVAAYKDAYERDLESDIIGDTSGHFQKMLVVLLQGTRENDDVVSEDLVQQDVQDLYEAGELKWGTDEAQFIYILGNRSKQHLRLVFDEYLKTTGKPIEASIRGELSGDFEKLMLAVVKCIRSTPEYFAERLFKAMKGLGTRDNTLIRIMVSRSELDMLDIREIFRTKYEKSLYSMIKNDTSGEYKKALLKLCGGDDDAAGQFFPEAAQVAYQMWELSAVSRVELKGTVCAANDFNPDADAKALRKAMKGIGTDEATIIDIVTHRSNAQRQQIRQTFKSHFGRDLMADLKSEISGDLARLILGLMMPPAHYDAKQLKKAMEGAGTDEKTLIEILATRTNAEIRAINEAYKEDYHKSLEDALSSDTSGHFRRILISLATGNREEGGENRDQAQEDAQVAAEILEIADTPSGDKTSLETRFMTVLCTRSYPHLRRVFQEFIKKTNYDIEHVIKKEMSGDVKDAFVAIVQSVKNKPLFFADKLYKSMKGAGTDEKTLTRVMVSRSEIDLLNIRREFIEKYDKSLHQAIEGDTSGDFMKALLALCGGED
modifications: C-terminal turboGFP or tdTomato tag
notes: annexin A6 with carboxyl-terminal turboGFP or tdTomato tag, expressed from plasmid electroporated into myofibers
For the molecule B1, the “Ca2+ cycling (Indo-1)” value in the data set with Isolated FDB fibers (40 or 80 Hz stimulation) is listed as “no differences”. In the data set on Isolated FDB fibers, the unloaded cell shortening entry was “unaffected”.

B2: recombinant annexin A6: recombinant human annexin A6 protein with C-terminal HIS tag (5186-A6-050, R&D systems); mouse protein from Northwestern core in one cohort (protein, UniProt P08133 2-673, looked up)
Annexin A6: AKPAQGAKYRGSIHDFPGFDPNQDAEALYTAMKGFGSDKEAILDIITSRSNRQRQEVCQSYKSLYGKDLIADLKYELTGKFERLIVGLMRPPAYCDAKEIKDAISGIGTDEKCLIEILASRTNEQMHQLVAAYKDAYERDLEADIIGDTSGHFQKMLVVLLQGTREEDDVVSEDLVQQDVQDLYEAGELKWGTDEAQFIYILGNRSKQHLRLVFDEYLKTTGKPIEASIRGELSGDFEKLMLAVVKCIRSTPEYFAERLFKAMKGLGTRDNTLIRIMVSRSELDMLDIREIFRTKYEKSLYSMIKNDTSGEYKKTLLKLSGGDDDAAGQFFPEAAQVAYQMWELSAVARVELKGTVRPANDFNPDADAKALRKAMKGLGTDEDTIIDIITHRSNVQRQQIRQTFKSHFGRDLMTDLKSEISGDLARLILGLMMPPAHYDAKQLKKAMEGAGTDEKALIEILATRTNAEIRAINEAYKEDYHKSLEDALSSDTSGHFRRILISLATGHREEGGENLDQAREDAQVAAEILEIADTPSGDKTSLETRFMTILCTRSYPHLRRVFQEFIKMTNYDVEHTIKKEMSGDVRDAFVAIVQSVKNKPLFFADKLYKSMKGAGTDEKTLTRIMVSRSEIDLLNIRREFIEKYDKSLHQAIEGDTSGDFLKALLALCGGED
modifications: C-terminal His tag
notes: recombinant human annexin A6 protein with C-terminal HIS tag (5186-A6-050, R&D systems); mouse protein from Northwestern core in one cohort
Take B2: the “fold change in serum CK post/pre running” value with Sgcg-null mice [1] is on record as “reduced”; in the data set with Sgcg-null mice [1] (listed as rANXA6), “significantly reduced”. Besides, the “serum CK fold change post/pretreatment (Day 14/Day 0)” value in the data set with Sgcg-null mice [2] (1 mg/kg every 3 days for 14 days, compared to recombinant annexin A2, proteins from Northwestern's Protein Production Core) is listed as “significantly reduced”. In addition, the “serum creatine kinase (CK) at day 14” value is reported as “significantly decreased” in the data set with Sgcg-null mice [2] and “lower” in the data set with Sgcg-null mice [2] (listed as rANXA6). Besides, the “serum creatine kinase (CK)” value with Sgcg-null mice [2] (setting [3]) is “reduced”. For the same molecule, the “serum lactate dehydrogenase (LDH)” value with Sgcg-null mice [2] (setting [3]) is given as “reduced”. Besides, the “histology of gastrocnemius/soleus muscle” value in the data set on Sgcg-null mice [2] (14-day dosing, vs PBS) is “qualitatively less injury”.
